Values joined by “and” are separate entries in the source; they are usually repeats but may differ in a detail not shown here. Identical values can stand only once. “Also recorded” adds a separate entry of the source. Like-named read-outs stand apart in the source and are kept apart here.
B1: ECB38: bispecific linked to albumin binding domain, SEQ ID NO: 120; high EGFR / high c-Met affinity; test article of Tables 14-16 (protein)
chain: MLPAPKNLVVSEVTEDSARLSWDDPWAFYESFLIQYQESEKVGEAIVLTVPGSERSYDLTGLKPGTEYTVSIYGVHNVYKDTNMRGLPLSAIFTTAPAPAPAPAPLPAPKNLVVSRVTEDSARLSWTAPDAAFDSFWIRYFEFLGSGEAIVLTVPGSERSYDLTGLKPGTEYVVNIMGVKGGKISPPLSAIFTTAPAPAPAPAPLAEAKVLANRELDKYGVSDYYKNLINNAKTVEGVKALLDEILAALP
modifications: Bispecific EGFR/c-Met binding molecule
B2: ECB15: bispecific, SEQ ID NO: 57 (145 in Table 19): P54AR4-83v2-(AP)5-P114AR7P94-A3 (protein)
chain: MLPAPKNLVVSEVTEDSARLSWDDPWAFYESFLIQYQESEKVGEAIVLTVPGSERSYDLTGLKPGTEYTVSIYGVHNVYKDTNMRGLPLSAIFTTAPAPAPAPAPLPAPKNLVVSRVTEDSARLSWTAPDAAFDSFWIRYFEFLGSGEAIVLTVPGSERSYDLTGLKPGTEYVVNIMGVKGGKISPPLSAIFTT
modifications: bispecific EGFR/cMet binding molecule

Experiments:
[1] = tested on: NCI-H292 cells expressing human HGF, xenograft; assay: Tumor efficacy study with bispecific molecules of variable affinity, H292-HGF xenograft; format: in vivo, mice; settings: 25 mg/kg three times per week, FIG. 8
Experimental: One week after implantation, mice were stratified into groups with equivalent tumor volumes (mean tumor volume=77.9+/−1.7 mm^3). Mice were dosed three times per week with the bispecific molecules and tumor volumes were recorded twice weekly.

[2] = tested on: H292-HGF human lung cancer xenograft; format: in vivo
Experimental: The H292-HGF cells were maintained in vitro in RPMI1640 medium supplemented with fetal bovine serum (10% v/v), and L-glutamine (2 mM) at 37° C. in an atmosphere of 5% CO2 in air. The cells were routinely subcultured twice weekly by trypsin-EDTA treatment. The cells growing in an exponential growth phase were harvested and counted for tumor inoculation.
Each mouse was inoculated subcutaneously at the right flank region with H292-HGF tumor cells (2×10^6) in 0.1 ml of PBS with cultrex (1:1) for tumor development. The treatments were started when the mean tumor size reached 139 mm^3. […] The date of tumor cell inoculation was denoted as day 0.
Before commencement of treatment, all animals were weighed and the tumor volumes were measured. Since the tumor volume can affect the effectiveness of any given treatment, mice were assigned into groups using randomized block design based upon their tumor volumes. […] The randomized block design was used to assign experimental animals to groups. First, the experimental animals were divided into homogeneous blocks according to their initial tumor volume. Secondly, within each block, randomization of experimental animals to treatments was conducted.
At the time of routine monitoring, the animals were checked for any effects of tumor growth and treatments on normal behavior, such as mobility, visual estimation of food and water consumption, body weight gain/loss (body weights were measured twice weekly), eye/hair matting and any other abnormal effect.
The endpoint was whether tumor growth can be delayed or tumor bearing mice can be cured. Tumor size was measured twice weekly in two dimensions using a caliper, and the volume was expressed in mm^3 using the formula: V=0.5 a×b^2 where a and b are the long and short diameters of the tumor, respectively. The tumor size was then used for calculations of both T-C and T/C values. T-C was calculated with T as the time (in days) required for the mean tumor size of the treatment group to reach 1000 mm^3, and C was the time (in days) for the mean tumor size of the control group to reach the same size. The T/C value (in percent) was an indication of antitumor efficacy; T and C were the mean tumor volume of the treated and control groups, respectively, on a given day. Complete tumor regression (CR) is defined as tumors that are reduced to below the limit of palpation (62.5 mm^3). Partial tumor regression (PR) is defined as tumors that are reduced from initial tumor volume. A minimum duration of CR or PR in 3 or more successive tumor measurements is required for a CP or PR to be considered durable.
Animals for which the body weight loss exceeded 20%, or for which the mean tumor size of the group exceeds 2000 mm^3 were euthanized. The study was terminated after two weeks of observation after the final dose.
Statistical analyses of difference in tumor volume among the groups were evaluated using a one-way ANOVA followed by individual comparisons using Games-Howell (equal variance not assumed). All data were analyzed using SPSS 18.0. p<0.05 was considered to be statistically significant.

[3] = tested on: NCI-H1975 cell line; assay: Inhibition of growth of NCI-H1975 cell line (EGFR L858R; T790M); format: cell-based, human; settings: NCI-H1975, mutation T790M
Experimental: Inhibition of human tumor cell growth was assessed in standard attachment culture as described in Examples 3 or 6, or in low attachment conditions.

[4] = target: T1, c-Met-Fc fusion protein (Homo sapiens, UniProt P08581); assay: c-Met-Fc affinity by surface plasmon resonance (ProteOn); format: binding; settings: serine mutants of A3 in the context of ECB15, SPR
T1 construct: recombinant EGFR and/or c-Met extracellular domain was further analyzed by surface Plasmon resonance
T1 sequence (P08581 25-932 limits assumed): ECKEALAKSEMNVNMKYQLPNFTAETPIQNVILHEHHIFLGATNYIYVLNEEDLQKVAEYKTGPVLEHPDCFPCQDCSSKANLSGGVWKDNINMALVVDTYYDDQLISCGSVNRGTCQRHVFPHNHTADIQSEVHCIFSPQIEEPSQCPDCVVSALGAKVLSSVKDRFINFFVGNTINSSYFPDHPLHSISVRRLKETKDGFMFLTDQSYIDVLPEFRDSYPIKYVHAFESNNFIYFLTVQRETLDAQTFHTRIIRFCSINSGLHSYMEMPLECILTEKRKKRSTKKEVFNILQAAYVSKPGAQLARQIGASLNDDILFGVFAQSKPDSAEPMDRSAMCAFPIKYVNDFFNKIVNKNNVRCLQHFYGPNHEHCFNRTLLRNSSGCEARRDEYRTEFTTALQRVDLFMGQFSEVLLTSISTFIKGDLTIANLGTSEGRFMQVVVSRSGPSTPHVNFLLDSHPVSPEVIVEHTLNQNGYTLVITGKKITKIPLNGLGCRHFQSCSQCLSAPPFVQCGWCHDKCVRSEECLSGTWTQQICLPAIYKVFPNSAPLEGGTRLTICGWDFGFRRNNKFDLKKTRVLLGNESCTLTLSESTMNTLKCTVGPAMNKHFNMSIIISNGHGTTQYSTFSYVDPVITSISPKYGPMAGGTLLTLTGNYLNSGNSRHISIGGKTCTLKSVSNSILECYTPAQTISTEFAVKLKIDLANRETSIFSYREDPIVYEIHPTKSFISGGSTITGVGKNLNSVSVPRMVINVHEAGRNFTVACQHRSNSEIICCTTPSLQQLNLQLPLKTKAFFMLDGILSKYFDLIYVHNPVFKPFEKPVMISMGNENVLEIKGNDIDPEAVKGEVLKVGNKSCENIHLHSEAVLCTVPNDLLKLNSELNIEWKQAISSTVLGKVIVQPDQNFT

| Molecule | tumor growth inhibition (in words) [1] | treatment tolerated ([2]; 25 mg/kg, 3 times/week x 3 weeks) | Tumor volume ([2]; day 7 (start of treatment), mean ± SEM, doses as in column head) [mm^3] | Tumor volume ([2]; day 9, mean ± SEM) [mm^3] | Tumor volume ([2]; day 13, mean ± SEM) [mm^3] | Tumor volume ([2]; day 16, mean ± SEM) [mm^3] | Tumor volume ([2]; day 20, mean ± SEM) [mm^3] | Tumor volume ([2]; day 23, mean ± SEM) [mm^3] | Tumor Size at day 23 ([2]; day 23 after tumor inoculation, doses given with treatment, listed as bispecific EGFR/c-Met molecule) | Tumor volume ([2]; day 27, mean ± SEM) [mm^3] | Tumor volume ([2]; day 30, mean ± SEM) [mm^3] | antitumor activity (in words) ([2]; doses as in Table 14, listed as bispecific EGFR/c-Met molecule) | mice euthanized when BWL>20% during the treatment period ([2]; mouse, in vivo) [mice] | tolerability / body weight loss (in words) ([2]; mouse, in vivo) | inhibition of growth (in words) [3] | ka [4] [M⁻¹ s⁻¹] | kd [4] [s⁻¹] |
| --- | --- | --- | --- | --- | --- | --- | --- | --- | --- | --- | --- | --- | --- | --- | --- | --- | --- |
| B1 | showed the most efficacy | 7 out of 10 | 137 ± 7 | 142 ± 7 | 83 ± 6 | 44 ± 7 | 30 ± 6 | 23 ± 7 | 23 mm^3 and 23 ± 7 mm^3 | 21 ± 5 | 23 ± 6 | complete tumor regression (CR) in all mice; also recorded: complete response | 3 | Slight toxicity | – | – | – |
| B2 | – | – | – | – | – | – | – | – | – | – | – | – | – | – | inhibited growth of NCI-H1975 cell line | 351000 | 0.000133 |

Reference: patent US9695228B2, “EGFR and c-Met fibronectin type III domain binding molecules” (Janssen Biotech, Inc., priority 2012, dated 2017)
